For one substance, CRE-luciferase reporter response to P-15, reduction against P622-CWI and SRE-luciferase reporter response to P-15, reduction against P622-CWI results are on record in publication PMC8263569.

The target in this assay is P622-G772A/S773A (ADGRG2-P622 with G772 and S773 of the ECL2 changed to alanine) (human) (UniProt Q8IZP9).
Sequence of UniProt Q8IZP9 (Q8IZP9 622-1017 G772A/S773A): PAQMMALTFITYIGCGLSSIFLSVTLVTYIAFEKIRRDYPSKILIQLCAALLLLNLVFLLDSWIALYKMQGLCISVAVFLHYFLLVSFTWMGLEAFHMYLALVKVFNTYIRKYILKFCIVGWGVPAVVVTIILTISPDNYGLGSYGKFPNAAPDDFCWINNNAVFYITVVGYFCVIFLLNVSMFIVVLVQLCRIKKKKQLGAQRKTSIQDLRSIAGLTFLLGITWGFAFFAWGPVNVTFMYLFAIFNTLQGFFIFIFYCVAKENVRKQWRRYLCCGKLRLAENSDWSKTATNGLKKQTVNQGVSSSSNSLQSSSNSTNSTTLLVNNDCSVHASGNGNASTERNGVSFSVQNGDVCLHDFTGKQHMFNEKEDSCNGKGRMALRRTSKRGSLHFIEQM

With “synthetic P-15 (15-amino acid long Stachel peptide of ADGRG2)”, the CRE-luciferase reporter response to P-15, reduction against P622-CWI worked out at 30% and the SRE-luciferase reporter response to P-15, reduction against P622-CWI came out at 40%.
